Assay results: US20160237160A1, “ANTI-TWEAKR ANTIBODIES AND USES THEREOF” (BAYER PHARMA AKTIENGESELLSCHAFT, priority 2013, published 2016)
Changes are numbered by the printed parent chain.

How the values were obtained:
[1] = target: T1, TWEAKR protein (TPP-2305) (Homo sapiens, UniProt Q9NP84); experiment: Biacore monovalent KD with TWEAKR protein; assay type: binding; conditions: for ka / kd: first order 1:1 binding model
T1 construct: TPP-2305; hTNFRSF12Aaa28-80; Human; 30R-AT080; 168; purchased Fitzgerald Inc 30R-AT080
Procedure: Binding affinities of anti-TWEAKR antibodies were determined by surface plasmon resonance analysis on a Biacore T100 instrument (GE Healthcare Biacore, Inc.). Antibodies were immobilized onto a CM5 sensor chip through an indirect capturing reagent, anti-human IgG(Fc). Reagents from the “Human Antibody Capture Kit” (BR-1008-39, GE Healthcare Biacore, Inc.) were used as described by the manufacturer. Anti-TWEAKR antibodies were injected at a concentration of 10 μg/ml at 10 μl/min for 10 sec.
Sensorgrams were generated after in-line reference cell correction followed by buffer sample subtraction. The dissociation equilibrium constant (KD) was calculated based on the ratio of association (kon) and dissociation rated (koff) constants, obtained by fitting sensorgrams with a first order 1:1 binding model.

TWEAKR = TWEAKR (Homo sapiens, UniProt Q9NP84); conditions: published data; read-out: KD / binding affinity to TWEAKR (published); cited from earlier work
[2] = target: T2, TWEAKR-Fc mutein H60K (TPP-1989) (Homo sapiens, UniProt Q9NP84, H60K); experiment: ELISA mutein binding; conditions: coating 62 ng/ml; biotinylated IgG from 100 nM; read-out: IC50 of antibody binding, H60K
T2 construct: the full ectodomain (amino acids 28-80) with the following single amino acid substitutions; made in house
Procedure: (§1) Therefore, the full ectodomain (amino acids 28-80) with the following single amino acid substitutions were expressed and purified as Fc fusion proteins: T33Q; S40R; W42A; M50A; R56P; H60K; L65Q.
(§2) To collect dose-response data, the different TWEAKR-Fc muteins were coated with a low concentration (62 ng/ml) in a 384-well Maxisorb ELISA plate and a serial 2fold dilution of biotinylated IgG starting with a concentration of 100 nM was used as soluble binding partner. Detection was done with Streptavidin-HRP and Amplex Red.
(§3) IgGs were biotinylated using an approximately 2-fold molar excess of biotin-LC-NHS (Pierce; Cat. No. 21347) according to manufacturer's instructions and desalted using Zeba desalting columns (Pierce; Cat. No. 89889). The dose-response data were fitted and IC50s determined.

[3] = target: T3, TWEAKR-Fc mutein T33Q (TPP-1986) (Homo sapiens, UniProt Q9NP84, T33Q); experiment: ELISA mutein binding; conditions: coating 62 ng/ml; biotinylated IgG from 100 nM; read-out: IC50 of antibody binding, T33Q
T3 construct: the full ectodomain (amino acids 28-80) with the following single amino acid substitutions; made in house
Procedure: as §1, §2, §3

[4] = target: T4, TWEAKR-Fc mutein R56P (TPP-2683) (Homo sapiens, UniProt Q9NP84, R56P); experiment: ELISA mutein binding; conditions: coating 62 ng/ml; biotinylated IgG from 100 nM; read-out: IC50 of antibody binding, R56P
T4 construct: the full ectodomain (amino acids 28-80) with the following single amino acid substitutions; made in house
Procedure: as §1, §2, §3

[5] = target: T5, TWEAKR-Fc mutein L65Q (TPP-1990) (Homo sapiens, UniProt Q9NP84, L65Q); experiment: ELISA mutein binding; conditions: coating 62 ng/ml; biotinylated IgG from 100 nM; read-out: IC50 of antibody binding, L65Q
T5 construct: the full ectodomain (amino acids 28-80) with the following single amino acid substitutions; made in house
Procedure: as §1, §2, §3

[6] = target: T6, TWEAKR-Fc mutein S40R (TPP-1987) (Homo sapiens, UniProt Q9NP84, S40R); experiment: ELISA mutein binding; conditions: coating 62 ng/ml; biotinylated IgG from 100 nM; read-out: IC50 of antibody binding, S40R
T6 construct: the full ectodomain (amino acids 28-80) with the following single amino acid substitutions; made in house
Procedure: as §1, §2, §3

[7] = target: T7, TWEAKR-Fc mutein W42A (TPP-1985) (Homo sapiens, UniProt Q9NP84, W42A); experiment: ELISA mutein binding; conditions: coating 62 ng/ml; biotinylated IgG from 100 nM; read-out: IC50 of antibody binding, W42A
T7 construct: the full ectodomain (amino acids 28-80) with the following single amino acid substitutions; made in house
Procedure: as §1, §2, §3

[8] = target: T8, TWEAKR-Fc mutein M50A (TPP-1988) (Homo sapiens, UniProt Q9NP84, M50A); experiment: ELISA mutein binding; conditions: coating 62 ng/ml; biotinylated IgG from 100 nM; read-out: IC50 of antibody binding, M50A
T8 construct: the full ectodomain (amino acids 28-80) with the following single amino acid substitutions; made in house
Procedure: as §1, §2, §3

TWEAKR-Fc WT (TPP-599) = target: T9, TWEAKR-Fc WT (TPP-599) (Homo sapiens, UniProt Q9NP84); experiment: ELISA mutein binding; conditions: coating 62 ng/ml; biotinylated IgG from 100 nM; read-out: IC50 of antibody binding, WT
T9 construct: TPP-599; HUMAN-TNFRSF12Aaa28-80-hIgG1-Fc; 138; made in house
Procedure: as §1, §2, §3

B1: 18.3.3(TPP-2193): reference anti-TWEAKR antibody, murine IgG2a, from WO2009/020933; SEQ ID NO 129/130 (protein)
light: DIVLTQSPASLAVSLGQRATISCKASQSVSTSTYSYMQWYQQRPGQSPKLLIKYASKLDSGVPARFSGSGSGTDFTLNIHPVEEEDTATYYCQHSWELPYTFGGGTRLEIKRADAAPTVSIFPPSSEQLTSGGASVVCFLNNFYPKDINVKWKIDGSERQNGVLNSWTDQDSKDSTYSMSSTLTLTKDEYERHNSYTCEATHKTSTSPIVKSFNRNEC
heavy: EVKLGESGGGLVQPGGSMKLSCVASGFPFTKYWMNWVRQSPEKGLEWVAEIRLKSDNYATHYAESAKGRFTISRDDSRSSVYLQMNNLRAEDTAIYYCSPTYADTMDYWGQGTSVTVSSAKTTAPSVYPLAPVCGDTTGSSVTLGCLVKGYFPEPVTLTWNSGSLSSGVHTFPAVLQSDLYTLSSSVTVTSSTWPSQSITCNVAHPASSTKVDKKIEPRGPTIKPCPPCKCPAPNLLGGPSVFIFPPKIKDVLMISLSPIVTCVVVDVSEDDPDVQISWFVNNVEVHTAQTQTHREDYNSTLRVVSALPIQHQDWMSGKEFKCKVNNKDLPAPIERTISKPKGSVRAPQVYVLPPPEEEMTKKQVTLTCMVTDFMPEDIYVEWTNNGKTELNYKNTEPVLDSDGSYFMYSKLRVEKKNWVERNSYSCSVVHEGLHNHHTTKSFSRTPG
modifications: Mus Musculus
**Q.** With B1 as the molecule, how does the ka [1] read?
**A.** 1.64e+07 M⁻¹ s⁻¹

**Q.** What about the kd [1] of the same molecule?
**A.** 0.0285 s⁻¹

**Q.** And the Kd (TWEAKR)?
**A.** 0.2 nM

**Q.** What about the IC50 [2] of the same molecule?
**A.** 0.001 to 0.15 nM

**Q.** And the IC50 [3]?
**A.** 0.001 to 0.15 nM

**Q.** What about the IC50 [4] of the same molecule?
**A.** > 50 nM

**Q.** What about the IC50 [5] of the same molecule?
**A.** 0.001 to 0.15 nM

**Q.** What about the IC50 [6] of the same molecule?
**A.** 0.001 to 0.15 nM

**Q.** What about the IC50 [7] of the same molecule?
**A.** > 50 nM

**Q.** And the IC50 [8]?
**A.** 0.001 to 0.15 nM

**Q.** And the IC50 (TWEAKR-Fc WT (TPP-599))?
**A.** 0.001 to 0.15 nM

B2: 136.1(TPP-2194): reference anti-TWEAKR antibody, murine IgG2a, from WO2009/020933; SEQ ID NO 123/124 (protein)
light: B1 light with A12T, K24R, T33S, S47P, S56T, K57N, T87A, L98I, R107K
heavy: EVKLEESGGGLVQPGGSMKLSCVASGFTFNNYWMSWVRQSPEKGLEWLAEIRLKSDNYATHYAESVKGKFTISRDDSKSRLYLQMNNLRAENTGIYYCTGGFADYFDYWGQGTTLTVSSAKTTAPSVYPLAPVCGDTTGSSVTLGCLVKGYFPEPVTLTWNSGSLSSGVHTFPAVLQSDLYTLSSSVTVTSSTWPSQSITCNVAHPASSTKVDKKIEPRGPTIKPCPPCKCPAPNLLGGPSVFIFPPKIKDVLMISLSPIVTCVVVDVSEDDPDVQISWFVNNVEVHTAQTQTHREDYNSTLRVVSALPIQHQDWMSGKEFKCKVNNKDLPAPIERTISKPKGSVRAPQVYVLPPPEEEMTKKQVTLTCMVTDFMPEDIYVEWTNNGKTELNYKNTEPVLDSDGSYFMYSKLRVEKKNWVERNSYSCSVVHEGLHNHHTTKSFSRTPG
modifications: Mus Musculus
**Q.** Which ka [1] does the source give for B2 here?
**A.** 3.84e+07 M⁻¹ s⁻¹

**Q.** And the kd [1]?
**A.** 0.0324 s⁻¹

**Q.** And the Kd (TWEAKR)?
**A.** 0.7 nM

**Q.** What about the IC50 [2] of the same molecule?
**A.** 0.001 to 0.15 nM

**Q.** What about the IC50 [3] of the same molecule?
**A.** 0.001 to 0.15 nM

**Q.** And the IC50 [4]?
**A.** > 50 nM

**Q.** And the IC50 [5]?
**A.** 0.001 to 0.15 nM

**Q.** And the IC50 [6]?
**A.** 0.001 to 0.15 nM

**Q.** What about the IC50 [7] of the same molecule?
**A.** > 50 nM

**Q.** And the IC50 [8]?
**A.** 0.001 to 0.15 nM

**Q.** What about the IC50 (TWEAKR-Fc WT (TPP-599)) of the same molecule?
**A.** 0.001 to 0.15 nM

B3: P2D3(TPP-2196): reference anti-TWEAKR antibody, murine IgG2a, from WO2009/140177; SEQ ID NO 131/132 (protein)
light: DIVLTQSPASLAVSLGQRATISCRASKSVSTSSYSYMHWYQQKPGQPPKLLIKYTSNLESGVPARFSGSGSGTDFILNIHPVEEEDAATYYCQHSRELPWTFGGGTKLEIKRADAAPTVSIFPPSSEQLTSGGASVVCFLNNFYPKDINVKWKIDGSERQNGVLNSWTDQDSKDSTYSMSSTLTLTKDEYERHNSYTCEATHKTSTSPIVKSFNRNEC
heavy: QVSLKESGPGILQPSQTLSLTCSFSGFSLSTSGMGVSWIRQPSGKGLEWLAHIYWDDDKRYNPSLKSRLTISKDTSRNQVFLKITSVDTADTATYYCARRGPDYYGYYPMDYWGQGTSVTVSAKTTAPSVYPLAPVCGDTTGSSVTLGCLVKGYFPEPVTLTWNSGSLSSGVHTFPAVLQSDLYTLSSSVTVTSSTWPSQSITCNVAHPASSTKVDKKIEPRGPTIKPCPPCKCPAPNLLGGPSVFIFPPKIKDVLMISLSPIVTCVVVDVSEDDPDVQISWFVNNVEVHTAQTQTHREDYNSTLRVVSALPIQHQDWMSGKEFKCKVNNKDLPAPIERTISKPKGSVRAPQVYVLPPPEEEMTKKQVTLTCMVTDFMPEDIYVEWTNNGKTELNYKNTEPVLDSDGSYFMYSKLRVEKKNWVERNSYSCSVVHEGLHNHHTTKSFSRTPG
modifications: Mus Musculus
**Q.** For B3, which ka [1] is on record?
**A.** 1.32e+06 M⁻¹ s⁻¹

**Q.** And the kd [1]?
**A.** 0.000564 s⁻¹

**Q.** What about the Kd ([1]; monovalent KD) of the same molecule?
**A.** 0.4 nM
